Experimental data published in paper PMC9241813, “SGK1, a Serine/Threonine Kinase, Inhibits Prototype Foamy Virus Replication” (Microbiology Spectrum, 2022).

Biological target: the molecule itself
Assay: cross-linking; HEK293T cells transfected with Flag-Tas and empty vector or HA-SGK1; lysate supernatant incubated with cross-linking buffer at room temperature for 30 min; Western blot

B1: prototype foamy virus Tas protein (Flag-Tas) (natural protein)
chain: MDSYEKEESVASTSGIQDLQTLSELVGPENAGEGELTIAEEPEENPRRPRRYTKREVKCVSYHAYKEIEDKHPQHIKLQDWIPTPEEMSKSLCKRLILCGLYSAEKASEILRMPFTVSWEQSDTDPDCFIVSYTCIFCDAVIHDPMPIRWDPEVGIWVKYKPLRGIVGSAVFIMHKHQRNCSLVKPSTSCSEGPKPRPRHDPVLRCDMFEKHHKPRQKRPRRRSIDNESCASSSDTMANEPGSLCTNPLWNPGPLLSGLLEESSNLPNLEVHMSGGPFWEEVYGDSILGPPSGSGEHSVL
notes: also called PFV Tas; Myc-Tas; source: HEK293T, transfected, in lysate
stoichiometry N: 2
